Results from patent US20110086089.

Columns and labels:
[1] = target: p27.T187A (recombinant, His-tagged)
[2] = target: phosphomimicking mutant p27.S83D/T187D (recombinant, His-tagged)
[3] = target: p27deltaPi (p27.S83A/T187A; recombinant, His-tagged)
[4] = target: p27.Pi-S83/T187, p27 pre-phosphorylated in vitro by CK2-alpha-prime at S83 and T187
[5] = target: recombinant His-tagged wt.p27
[6] = target: p27.Pi-T187, p27 pre-phosphorylated in vitro by CK2-alpha-prime at T187
[7] = target: p27.S83A (recombinant, His-tagged)
p27.S83A (recombinant, His-tagged), sequence (chain, as listed by the source S83A): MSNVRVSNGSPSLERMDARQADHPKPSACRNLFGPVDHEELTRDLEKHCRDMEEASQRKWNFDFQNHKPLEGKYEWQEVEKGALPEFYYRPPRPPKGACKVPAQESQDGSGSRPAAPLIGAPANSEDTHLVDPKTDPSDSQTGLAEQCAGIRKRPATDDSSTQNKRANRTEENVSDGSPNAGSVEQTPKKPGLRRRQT

[8] = target: p27.Pi-S83, p27 pre-phosphorylated in vitro by CK2-alpha-prime at S83

p27.Pi-T187, p27 pre-phosphorylated in vitro by CK2-alpha-prime at T187, sequence (chain, as listed by the source): as the sequence (chain, as listed by the source S83A) above
phosphomimicking mutant p27.S83D/T187D (recombinant, His-tagged), sequence (chain, as listed by the source S83D T187D): as the sequence (chain, as listed by the source S83A) above, with A83D, T187D counted along it
p27deltaPi (p27.S83A/T187A; recombinant, His-tagged), sequence (chain, as listed by the source S83A T187A): as the sequence (chain, as listed by the source S83A) above, with T187A counted along it

Row | Protein | reduction in phosphorylation by CK2-alpha-prime [1] | recombinant CK2-alpha-prime activity in vitro (32P incorporated into histone H1) [2] | phosphorylation of p27 in in vitro kinase reactions (32P incorporated into p27) [3] | recombinant CK2-alpha-prime activity in vitro (32P incorporated into histone H1) [4] | phosphorylation of p27 in in vitro kinase reactions (32P incorporated into p27) [5] | recombinant CK2-alpha-prime activity in vitro (32P incorporated into histone H1) [5] | recombinant CK2-alpha-prime activity in vitro (32P incorporated into histone H1) [6] | reduction in phosphorylation by CK2-alpha-prime [7] | recombinant CK2-alpha-prime activity in vitro (32P incorporated into histone H1) [8]
1 | recombinant active His-tagged CK2-alpha-prime/beta (protein) chain 1: MPGPAAGSRARVYAEVNSLRSREYWDYEAHVPSWGNQDDYQLVRKLGRGKYSEVFEAINITNNERVVVKILKPVKKKKIKREVKILENLRGGTNIIKLIDTVKDPVSKTPALVFEYINNTDFKQLYQILTDFDIRFYMYELLKALDYCHSKGIMHRDVKPHNVMIDHQQKKLRLIDWGLAEFYHPAQEYNVRVASRYFKGPELLVDYQMYDYSLDMWSLGCMLASMIFRREPFFHGQDNYDQLVRIAKVLGTEELYGYLKKYHIDLDPHFNDILGQHSRKRWENFIHSENRHLVSPEALDLLDKLLRYDHQQRLTAKEAMEHPYFYPVVKEQSQPCADNAVLSSGLTAAR chain 2: not shown | The S83A and T187A point mutants exhibited a 68% and 27% reduction in phosphorylation by CK2-alpha-prime, respectively | Simultaneous phosphorylation of S83/T187 in p27.Pi-S83/T187 or introducing phosphomimicking mutations in p27.S83D/T187D abolished the ability of p27 to inhibit CK2-alpha-prime | CK2-alpha-prime failed to phosphorylate p27deltaPi containing double-substituted mutations (S83A/T187A) | Simultaneous phosphorylation of S83/T187 in p27.Pi-S83/T187 or introducing phosphomimicking mutations in p27.S83D/T187D abolished the ability of p27 to inhibit CK2-alpha-prime | Wt.p27 was phosphorylated by CK2-alpha-prime | Wt.p27 completely inhibited recombinant CK2-alpha-prime activity in vitro | an incremental loss of p27 inhibitory activity towards CK2-alpha-prime when compared to wt.p27 | The S83A and T187A point mutants exhibited a 68% and 27% reduction in phosphorylation by CK2-alpha-prime, respectively | an incremental loss of p27 inhibitory activity towards CK2-alpha-prime when compared to wt.p27
2 | catalytically-inactive kinase-dead CK2-alpha-prime (kd.CK2-alpha-prime), K69M (protein) MPGPAAGSRARVYAEVNSLRSREYWDYEAHVPSWGNQDDYQLVRKLGRGKYSEVFEAINITNNERVVVMILKPVKKKKIKREVKILENLRGGTNIIKLIDTVKDPVSKTPALVFEYINNTDFKQLYQILTDFDIRFYMYELLKALDYCHSKGIMHRDVKPHNVMIDHQQKKLRLIDWGLAEFYHPAQEYNVRVASRYFKGPELLVDYQMYDYSLDMWSLGCMLASMIFRREPFFHGQDNYDQLVRIAKVLGTEELYGYLKKYHIDLDPHFNDILGQHSRKRWENFIHSENRHLVSPEALDLLDKLLRYDHQQRLTAKEAMEHPYFYPVVKEQSQPCADNAVLSSGLTAAR |  |  |  |  | Wt.p27 was phosphorylated by CK2-alpha-prime but not catalytically-inactive kinase-dead CK2-alpha-prime (kd. CK2-alpha-prime) |  |  |  | 
